From article PMC4754659, “Differential regulation of taurine biosynthesis in rainbow trout and Japanese flounder” (Scientific Reports, 2016)

Assays:
[1] = substrate: N[C@@H](CS)C(=O)O; experiment: HPLC of CSA product (OPA derivatised); format: biochemical, Paralichthys olivaceus; settings: MES 62.5 mM (pH 6.1 given for tissue buffer), 0.3 mM ferrous sulfate, 62.5 μM bathocuproine disulfonate, O2 (air), 37 °C, fit at 0–4 mM, substrate inhibition above 4 mM
[2] = substrate: N[C@@H](CS)C(=O)O; experiment: HPLC of CSA product (OPA derivatised); format: biochemical, Oncorhynchus mykiss; settings: MES 62.5 mM (pH 6.1 given for tissue buffer), 0.3 mM ferrous sulfate, 62.5 μM bathocuproine disulfonate, O2 (air), 37 °C, fit at 0–4 mM, substrate inhibition above 4 mM
[3] = substrate: N[C@@H](CS(=O)O)C(=O)O; experiment: HPLC of hypotaurine product (OPA derivatised); format: biochemical, Paralichthys olivaceus; settings: 100 mM NaH2PO4, 10 μM PLP, 37 °C, 10 min, CSA 0–15 mM, pH not given for assay (enzyme buffer pH 7.4)
[4] = substrate: N[C@@H](CS(=O)O)C(=O)O; experiment: HPLC of hypotaurine product (OPA derivatised); format: biochemical, Oncorhynchus mykiss; settings: 100 mM NaH2PO4, 10 μM PLP, 37 °C, 10 min, CSA 0–15 mM, pH not given for assay (enzyme buffer pH 7.4)

Protein | Km [3] [µM] | kcat [3] [s⁻¹] | Km [4] [µM] | kcat [4] [s⁻¹] | further results
Japanese flounder CDO (Paralichthys olivaceus) (protein, full-length ORF (201 aa printed, ORF 603 bp), N-terminal 6xHis tag, pET-28a, E. coli BL21(DE3), HisTrap and Superdex 200, iron supplemented; partly Cys-Tyr crosslinked) MEHTELLKPETLDELIKTLHDIFDSDCINVEEVQGVMESYESKPQEWMKYAKFDQYRYTRNLVDEGNGKFNLMILCWGEGHGSSIHDHTDSHCFMKLLQGQLKETLFEWPDCQSHGDMVQRSQRILQENKVAYINDSLGLHRVENVSHTECAVSLHLYSPPFQACQTFDQRTGHRNTVKMTFWSKYGERTPFETTVSQENN | – | – | – | – | Km [1]: 1230 ± 150 µM; kcat [1]: 29.36 ± 1.52 s⁻¹
rainbow trout CDO (Oncorhynchus mykiss) (protein, full-length ORF (200 aa printed, ORF 600 bp), N-terminal 6xHis tag, pET-28a, E. coli BL21(DE3), HisTrap and Superdex 200, iron supplemented; partly Cys-Tyr crosslinked) MDQTELLKPETLDDLIKVLHKIFESDNINVEEVQNIMEAYDSNPQEWMKFAKFDQFRYTRNLVDEGNGKFNLMILCWGEGHGSSIHDHTDSHCFMKLLQGQLKETLFEWPDKKTCNMVQKSQRILQTNQCAYINDSFGLHRVENASHTECSASLHLYSPPFKTCQTFDQRTGHKNTVKMTFWSKFGERTPFETTVSQENN | – | – | – | – | Km [2]: 790 ± 90 µM; kcat [2]: 16.72 ± 0.67 s⁻¹
Japanese flounder CSD (Paralichthys olivaceus) (protein, full-length ORF (487 aa printed, ORF 1461 bp), N-terminal 6xHis tag, pET-28a, E. coli BL21(DE3), HisTrap and Superdex 200) MNEPLLDNSEGQLFLTEAFKVIVEEVLCKGTDVKEKVCEWREPEELAALLDLELRENGEPQHQLLQRIRDVAKYSVKTSHPRFFNQQFAGVDYHSLAGRFLTESLNTNLFTYEVAPVFVLMETEVLRGLRQLVGWTEGDGIFCPGGSTSNMYAMNLARYRLFPEVKTQGLWGLPRLTVFTSQESHYSVKKGAGFLGLGTDNVILVKVDDGGRMIPSDLDEKITLTKSQGAVPFLVSCTAGTTVQGAFDPLDHIADVCEKHKLWLHVDAAWGGSVLFSKQHRHLMKGVDRANSVAWNPHKMLVAGLQCSALLLKDTTNLLKQCHCASATYLFQQDKFYDVNLDIGDKSLQCSRKVDCLKLWLMWKAVGSNGLAERVDKAFFHVRYLVEQMKKREGFHLLGQPEFVNVCFWYIPPSLRGKEGDSDYQDRLAKVAPVIKERMVKQGTMMVGYQPLANRVNFFRVIIFSPLISQRDIDFFLDEIERLGNDL | 3450 ± 380 | 1.52 ± 0.13 | – | – | –
Japanese flounder CSD (Paralichthys olivaceus; F110Y/N108S) (protein, full-length ORF (487 aa printed, ORF 1461 bp), N-terminal 6xHis tag, pET-28a, E. coli BL21(DE3), HisTrap and Superdex 200) MNEPLLDNSEGQLFLTEAFKVIVEEVLCKGTDVKEKVCEWREPEELAALLDLELRENGEPQHQLLQRIRDVAKYSVKTSHPRFFNQQFAGVDYHSLAGRFLTESLNTSLYTYEVAPVFVLMETEVLRGLRQLVGWTEGDGIFCPGGSTSNMYAMNLARYRLFPEVKTQGLWGLPRLTVFTSQESHYSVKKGAGFLGLGTDNVILVKVDDGGRMIPSDLDEKITLTKSQGAVPFLVSCTAGTTVQGAFDPLDHIADVCEKHKLWLHVDAAWGGSVLFSKQHRHLMKGVDRANSVAWNPHKMLVAGLQCSALLLKDTTNLLKQCHCASATYLFQQDKFYDVNLDIGDKSLQCSRKVDCLKLWLMWKAVGSNGLAERVDKAFFHVRYLVEQMKKREGFHLLGQPEFVNVCFWYIPPSLRGKEGDSDYQDRLAKVAPVIKERMVKQGTMMVGYQPLANRVNFFRVIIFSPLISQRDIDFFLDEIERLGNDL | 1830 ± 170 | 6.26 ± 0.20 | – | – | –
rainbow trout CSD (Oncorhynchus mykiss) (protein, full-length ORF (525 aa, ORF 1575 bp), N-terminal 6xHis tag, pET-28a, E. coli BL21(DE3), HisTrap and Superdex 200) MSHLPRFWNLGWSSFLDWWSNQSVVSEQGPSPLYGQQEMNEPLLDNSEGQLFLTEAFKVIVEEVLCKGTDVKEKVCEWREPEELAALLDLELRENGEPQHQLLQRIRDVAKYSVKTNHPRFFNQLFAGVDYHALTGRFLTEALNTSQYTYEVAPVFVLMEDEVLSKLRSLVGWAEGDGIFCPGGTMSNMYAMNVARYRAFPEVKLKGMWSLPRLAVFTSQQSHYSVMKAAAFQGIGTENVFKVKVDDRGCMIPEDLGETIELAKSQGAVPFFVHATSGTTVQGAFDPLEPIADICDRQGLWMHVDAAWGGSVLFSKEHKHLMRGVERADSVTWNPHKMMLTGLQCSAILLKDTTHLLKHCHSADAKYLFQQDKFYDTSLDTGDKSIQCGRKVDCLKLWLMWKAVGSKGLEERVDRAFTHTRYLVEEMKRREGFELIGKPLFVNVCFWFIPPSLRGKENSPDYNDRLSKVAPVIKERMMKQGTMMLGYQPQGGRVNFFRMIVISPQLSHQDMTFCLNEIERLGSDL | – | – | 2300 ± 240 | 4.72 ± 0.36 | –
rainbow trout CSD (Oncorhynchus mykiss; S146N/Y148F) (protein, full-length ORF (525 aa, ORF 1575 bp), N-terminal 6xHis tag, pET-28a, E. coli BL21(DE3), HisTrap and Superdex 200) MSHLPRFWNLGWSSFLDWWSNQSVVSEQGPSPLYGQQEMNEPLLDNSEGQLFLTEAFKVIVEEVLCKGTDVKEKVCEWREPEELAALLDLELRENGEPQHQLLQRIRDVAKYSVKTNHPRFFNQLFAGVDYHALTGRFLTEALNTNQFTYEVAPVFVLMEDEVLSKLRSLVGWAEGDGIFCPGGTMSNMYAMNVARYRAFPEVKLKGMWSLPRLAVFTSQQSHYSVMKAAAFQGIGTENVFKVKVDDRGCMIPEDLGETIELAKSQGAVPFFVHATSGTTVQGAFDPLEPIADICDRQGLWMHVDAAWGGSVLFSKEHKHLMRGVERADSVTWNPHKMMLTGLQCSAILLKDTTHLLKHCHSADAKYLFQQDKFYDTSLDTGDKSIQCGRKVDCLKLWLMWKAVGSKGLEERVDRAFTHTRYLVEEMKRREGFELIGKPLFVNVCFWFIPPSLRGKENSPDYNDRLSKVAPVIKERMMKQGTMMLGYQPQGGRVNFFRMIVISPQLSHQDMTFCLNEIERLGSDL | – | – | 2730 ± 270 | 1.86 ± 0.07 | –
